From patent US6875851

Experiments:
Peptide 8 = biological target: T1, Peptide 8
T1 chain: VPPGEDSK

Peptide 9 = biological target: T2, Peptide 9
T2 chain: VPPGEDSK

Peptide 22 = biological target: T3, Peptide 22
T3 chain: KIAGYHLEL

Peptide 2 = biological target: T4, Peptide 2
T4 chain: RPPGF

Peptide 13 = biological target: T5, Peptide 13
T5 chain: PNPNQGNFI

Peptide 11 = biological target: T6, Peptide 11
T6 chain: RGPFPI

Peptide 10 = biological target: T7, Peptide 10
T7 chain: VEPIPY

Peptide 14 = biological target: T8, Peptide 14
T8 chain: RHPKYKTEL

Peptide 16 = biological target: T9, Peptide 16
T9 chain: KGPPAALTL

Peptide 18 = biological target: T10, Peptide 18
T10 chain: FLREPVIFL

Peptide 12 = biological target: T11, Peptide 12
T11 chain: ARPAK

Peptide 5 = biological target: T12, Peptide 5
T12 chain: RPGFSPFR

Peptide 19 = biological target: T13, Peptide 19
T13 chain: GIRPYEILA

Peptide 15 = biological target: T14, Peptide 15
T14 chain: GVPKTHLEL

B1: prolyl-tripeptidyl peptidase A from P. gingivalis (protein)
chain: QSPETSGKEFTLEQLMPGGKEFYNFYPEYVVGLQWMGDNYVFIEGDDLVFNKANGKSAQTTRFSAADLNALMPEGCKFQTTDAFPSFRTLDAGRGLVVLFTQGGLVGFDMLARKVTYLFDTNEETASLDFSPVGDRVAYVRNHNLYIARGGKLGEGMSRAIAVTIDGTETLVYGQAVHQREFGIEKGTFWSPKGSCLAFYRMDQSMVKPTPIVDYHPLEAESKPLYYPMAGTPSHHVTVGIYHLATGKTVYLQTGEPKEKFLTNLSWSPDENILYVAEVNRAQNECKVNAYDAETGRFVRTLFVETDKHYVEPLHPLTFLPGSNNQFIWQSRRDGWNHLYLYDTTGRLIRQVTKGEWEVTNFAGFDPKGTRLYFESTEASPLERHFYCIDIKGGKTKDLTPESGMHRTQLSPDGSAIIDIFQSPTVPRKVTVTNIGKGSHTLLEAKNPDTGYAMPEIRTGTIMAADGQTPLYYKLTMPLHFDPAKKYPVIVYVYGGPHAQLVTKTWRSSVGGWDIYMAQKGYAVFTVDSRGSANRGAAFEQVIHRRLGQTEMADQMCGVDFLKSQSWVDADRIGVHGWSYGGFMTTNLMLTHGDVFKVGVAGGPVIDWNRYEIMYGERYFDAPQENPEGYDAANLLKRAGDLKGRLMLIHGAIDPVVVWQHSLLFLDACVKARTYPDYYVYPSHEHNVMGPDRVHLYETITRYFTDHL
For B1, the Cleavage site (Peptide 8) was “H-Val-Pro-Pro-↓-Gly-Glu-Asp-Ser-Lys”, the “Cleavage site (no ↓ printed: not cleaved)” value (Peptide 9) was “Ac-Val-Pro-Pro-Gly-Glu-Asp-Ser-Lys” and the “Cleavage site (no ↓ printed: not cleaved)” value (Peptide 22) was “H-Lys-Ile-Ala-Gly-Tyr-His-Leu-Glu-Leu”. The Cleavage site (Peptide 2) was “H-Arg-Pro-Pro-↓-Gly-Phe”, the Cleavage site (Peptide 13) was “H-Pro-Asn-Pro-↓-Asn-Gln-Gly-Asn-Phe-Ile” and the Cleavage site (Peptide 11) was “H-Arg-Gly-Pro-↓-Phe-Pro-Ile”. For the same protein, the Cleavage site (Peptide 10) was “H-Val-Glu-Pro-↓-Ile-Pro-Tyr”, the Cleavage site (Peptide 14) was “H-Arg-His-Pro-↓-Lys-Tyr-Lys-Thr-Glu-Leu” and the “Cleavage site (no ↓ printed: not cleaved)” value (Peptide 16) was “H-Lys-Gly-Pro-Pro-Ala-Ala-Leu-Thr-Leu”. For the same protein, the “Cleavage site (no ↓ printed: not cleaved)” value (Peptide 18) was “H-Phe-Leu-Arg-Glu-Pro-Val-Ile-Phe-Leu”, the Cleavage site (Peptide 12) was “H-Ala-Arg-Pro-↓-Ala-D-Lys-amide” and the “Cleavage site (no ↓ printed: not cleaved)” value (Peptide 5) was “H-Arg-Pro-Hyp-Gly-Phe-Ser-Pro-Phe-Arg”. For the same protein, the Cleavage site (Peptide 1) was “H-Arg-Pro-Pro-↓-Gly-Phe-Ser-Pro-Phe-Arg”, the “Cleavage site (no ↓ printed: not cleaved)” value (Peptide 19) was “H-Gly-Ile-Arg-Pro-Tyr-Glu-Ile-Leu-Ala” and the Cleavage site (Peptide 15) was “H-Gly-Val-Pro-↓-Lys-Thr-His-Leu-Glu-Leu”.
